± gives the uncertainty stated by the source.
Experiment: self-splicing fitness, log relative to wild type (ln ratio); higher = more splicing; Tetrahymena group I intron in knt gene, E. coli kanamycin selection, DiMSum; sequences stand for … in CUCUCU…GGAGGGAAAAGUUAUCAGGCAUGCACCUGGUAGCUAGUCUUUAAACCAAUAGAUUGCAUCGGUUUAAAAGGCAAGACCGUCAAAUUGCGGGAAAGGGGUCAACAGCCGUUCAGUACCAAGUCUCAGGGGAAACUUUGAGAUGGCCUUGCAAAGGGUAUGGUAAUAAGCUGACGGACAUGGUCCUAACCACGCAGCCAAGUCCUAAGUCAACAGAUCUUCUGUUGAUAUGGAUGCAGUUCACAGACUAAAUGUCGGUCGGGGAAGAUGUAUUCUUCUCAUAAGAUAUAGUCGGACCUCUCCUUAAUGGGAGCUAGCGGAUGAAGUGAUGCAACACUGGAGCCGCUGGGAACUAAUUUGUAUGCGAAAGUAUAUUGAUUAGUUUUGGAGUACUCGUGGUCG
Procedure, shortened: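 Library with all eight P1ex-region intron nucleotides randomised, intron inside the knt kanamycin-resistance gene on pET-22b(+), in E. coli BL21(DE3). Cells grew overnight at 37°C or 30°C on LB agar with or without 25 μg/mL kanamycin (plus 100 μg/mL carbenicillin, 50 μM IPTG, 0.2% rhamnose), in six replicate transformations. Pooled colonies were amplicon-sequenced on Illumina HiSeq 2500. DiMSum fitness is the error-weighted combination of wild-type-normalised replicate fold changes, kanamycin versus none.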

Sequence	self-splicing fitness (ln) (30 °C)	self-splicing fitness (ln) (37 °C)
AAGAAGCAAUAUUACGAUGU	-1.29 ± 0.086	-1.01 ± 0.1
AAGAAGCAAUAUUACGAUUC	-1.49 ± 0.1	-0.941 ± 0.14
AAGAAGCAAUAUUACGCCGG	-2.02 ± 0.24	-1.81 ± 0.18
AAGAAGCAAUAUUACGCCUG	-0.11 ± 0.11	-0.509 ± 0.14
AAGAAGCAAUAUUACGCGAU	-3.59 ± 0.41	-2 ± 0.42
AAGAAGCAAUAUUACGCGCG	-0.562 ± 0.12	-0.0457 ± 0.15
AAGAAGCAAUAUUACGCGUU	-2.74 ± 0.11	-1.32 ± 0.11
AAGAAGCAAUAUUACGCUUG	-1.23 ± 0.11	-0.951 ± 0.14
AAGAAGCAAUAUUACGGAUG	-1.8 ± 0.076	-2.03 ± 0.12
AAGAAGCAAUAUUACGGCAG	-1.35 ± 0.099	-0.774 ± 0.12
AAGAAGCAAUAUUACGGGCU	-1.35 ± 0.13	-2.09 ± 0.2
AAGAAGCAAUAUUACGGUGC	-3.77 ± 0.2	-1.68 ± 0.17
AAGAAGCAAUAUUACGGUUC	-2.86 ± 0.14	-0.743 ± 0.15
AAGAAGCAAUAUUACGUAAA	-2.27 ± 0.1	-1.14 ± 0.14
AAGAAGCAAUAUUACGUCCC	-1.06 ± 0.16	0.89 ± 0.21
AAGAAGCAAUAUUACGUGGG	-2.71 ± 0.13	-2.57 ± 0.14
AAGAAGCAAUAUUACGUGGU	-3.58 ± 0.14	-2.23 ± 0.14
AAGAAGCAAUAUUACGUUAG	-3.65 ± 0.31	-2.77 ± 0.22
AAGCAGCAAUAUUACGACUA	-0.00923 ± 0.1	-0.791 ± 0.13

Sequence	self-splicing fitness (ln) (30 °C)	self-splicing fitness (ln) (37 °C)
AAGCAGCAAUAUUACGAGAU	-3.14 ± 0.17	-1.61 ± 0.14
AAGCAGCAAUAUUACGAGGG	-2.45 ± 0.14	-2.28 ± 0.2
AAGCAGCAAUAUUACGAGUA	-2.87 ± 0.19	-2.08 ± 0.14
AAGCAGCAAUAUUACGAUCG	-2.29 ± 0.14	-0.905 ± 0.12
AAGCAGCAAUAUUACGAUUU	0.17 ± 0.061	0.619 ± 0.079
AAGCAGCAAUAUUACGCAAU	-1.23 ± 0.085	-1.22 ± 0.091
AAGCAGCAAUAUUACGCAGC	-2.55 ± 0.16	-3.41 ± 0.39
AAGCAGCAAUAUUACGCAGU	-3.36 ± 0.23	-1.52 ± 0.13
AAGCAGCAAUAUUACGCCAG	-2.67 ± 0.36	-1.43 ± 0.41
AAGCAGCAAUAUUACGCGCA	-1.73 ± 0.14	-0.501 ± 0.2
AAGCAGCAAUAUUACGCUAG	-2.56 ± 0.12	-2.84 ± 0.14
AAGCAGCAAUAUUACGGAAA	-2.74 ± 0.12	-2.26 ± 0.14
AAGCAGCAAUAUUACGGCAA	-0.0737 ± 0.06	0.139 ± 0.081
AAGCAGCAAUAUUACGGCGU	-0.0119 ± 0.067	0.201 ± 0.079
AAGCAGCAAUAUUACGGGAA	-3.05 ± 0.22	-2.15 ± 0.17
AAGCAGCAAUAUUACGGUAU	-1.55 ± 0.055	-1.13 ± 0.078
AAGCAGCAAUAUUACGUCCC	-1.01 ± 0.15	-0.803 ± 0.2
AAGCAGCAAUAUUACGUCCU	-0.341 ± 0.081	-0.442 ± 0.094

Source: the supplement of paper PMC7877785
